Experimental data taken from US20240295565A1 (Genentech, published 2024).

Target: human UNC80 (uncoordinated 80; protein unc-80 homolog) (human) (UniProt Q8N2C7)
Experiment: cryo-EM structure, crossover interface

Chain of human UNC80 (uncoordinated 80; protein unc-80 homolog) (human) (Q8N2C7 whole entry): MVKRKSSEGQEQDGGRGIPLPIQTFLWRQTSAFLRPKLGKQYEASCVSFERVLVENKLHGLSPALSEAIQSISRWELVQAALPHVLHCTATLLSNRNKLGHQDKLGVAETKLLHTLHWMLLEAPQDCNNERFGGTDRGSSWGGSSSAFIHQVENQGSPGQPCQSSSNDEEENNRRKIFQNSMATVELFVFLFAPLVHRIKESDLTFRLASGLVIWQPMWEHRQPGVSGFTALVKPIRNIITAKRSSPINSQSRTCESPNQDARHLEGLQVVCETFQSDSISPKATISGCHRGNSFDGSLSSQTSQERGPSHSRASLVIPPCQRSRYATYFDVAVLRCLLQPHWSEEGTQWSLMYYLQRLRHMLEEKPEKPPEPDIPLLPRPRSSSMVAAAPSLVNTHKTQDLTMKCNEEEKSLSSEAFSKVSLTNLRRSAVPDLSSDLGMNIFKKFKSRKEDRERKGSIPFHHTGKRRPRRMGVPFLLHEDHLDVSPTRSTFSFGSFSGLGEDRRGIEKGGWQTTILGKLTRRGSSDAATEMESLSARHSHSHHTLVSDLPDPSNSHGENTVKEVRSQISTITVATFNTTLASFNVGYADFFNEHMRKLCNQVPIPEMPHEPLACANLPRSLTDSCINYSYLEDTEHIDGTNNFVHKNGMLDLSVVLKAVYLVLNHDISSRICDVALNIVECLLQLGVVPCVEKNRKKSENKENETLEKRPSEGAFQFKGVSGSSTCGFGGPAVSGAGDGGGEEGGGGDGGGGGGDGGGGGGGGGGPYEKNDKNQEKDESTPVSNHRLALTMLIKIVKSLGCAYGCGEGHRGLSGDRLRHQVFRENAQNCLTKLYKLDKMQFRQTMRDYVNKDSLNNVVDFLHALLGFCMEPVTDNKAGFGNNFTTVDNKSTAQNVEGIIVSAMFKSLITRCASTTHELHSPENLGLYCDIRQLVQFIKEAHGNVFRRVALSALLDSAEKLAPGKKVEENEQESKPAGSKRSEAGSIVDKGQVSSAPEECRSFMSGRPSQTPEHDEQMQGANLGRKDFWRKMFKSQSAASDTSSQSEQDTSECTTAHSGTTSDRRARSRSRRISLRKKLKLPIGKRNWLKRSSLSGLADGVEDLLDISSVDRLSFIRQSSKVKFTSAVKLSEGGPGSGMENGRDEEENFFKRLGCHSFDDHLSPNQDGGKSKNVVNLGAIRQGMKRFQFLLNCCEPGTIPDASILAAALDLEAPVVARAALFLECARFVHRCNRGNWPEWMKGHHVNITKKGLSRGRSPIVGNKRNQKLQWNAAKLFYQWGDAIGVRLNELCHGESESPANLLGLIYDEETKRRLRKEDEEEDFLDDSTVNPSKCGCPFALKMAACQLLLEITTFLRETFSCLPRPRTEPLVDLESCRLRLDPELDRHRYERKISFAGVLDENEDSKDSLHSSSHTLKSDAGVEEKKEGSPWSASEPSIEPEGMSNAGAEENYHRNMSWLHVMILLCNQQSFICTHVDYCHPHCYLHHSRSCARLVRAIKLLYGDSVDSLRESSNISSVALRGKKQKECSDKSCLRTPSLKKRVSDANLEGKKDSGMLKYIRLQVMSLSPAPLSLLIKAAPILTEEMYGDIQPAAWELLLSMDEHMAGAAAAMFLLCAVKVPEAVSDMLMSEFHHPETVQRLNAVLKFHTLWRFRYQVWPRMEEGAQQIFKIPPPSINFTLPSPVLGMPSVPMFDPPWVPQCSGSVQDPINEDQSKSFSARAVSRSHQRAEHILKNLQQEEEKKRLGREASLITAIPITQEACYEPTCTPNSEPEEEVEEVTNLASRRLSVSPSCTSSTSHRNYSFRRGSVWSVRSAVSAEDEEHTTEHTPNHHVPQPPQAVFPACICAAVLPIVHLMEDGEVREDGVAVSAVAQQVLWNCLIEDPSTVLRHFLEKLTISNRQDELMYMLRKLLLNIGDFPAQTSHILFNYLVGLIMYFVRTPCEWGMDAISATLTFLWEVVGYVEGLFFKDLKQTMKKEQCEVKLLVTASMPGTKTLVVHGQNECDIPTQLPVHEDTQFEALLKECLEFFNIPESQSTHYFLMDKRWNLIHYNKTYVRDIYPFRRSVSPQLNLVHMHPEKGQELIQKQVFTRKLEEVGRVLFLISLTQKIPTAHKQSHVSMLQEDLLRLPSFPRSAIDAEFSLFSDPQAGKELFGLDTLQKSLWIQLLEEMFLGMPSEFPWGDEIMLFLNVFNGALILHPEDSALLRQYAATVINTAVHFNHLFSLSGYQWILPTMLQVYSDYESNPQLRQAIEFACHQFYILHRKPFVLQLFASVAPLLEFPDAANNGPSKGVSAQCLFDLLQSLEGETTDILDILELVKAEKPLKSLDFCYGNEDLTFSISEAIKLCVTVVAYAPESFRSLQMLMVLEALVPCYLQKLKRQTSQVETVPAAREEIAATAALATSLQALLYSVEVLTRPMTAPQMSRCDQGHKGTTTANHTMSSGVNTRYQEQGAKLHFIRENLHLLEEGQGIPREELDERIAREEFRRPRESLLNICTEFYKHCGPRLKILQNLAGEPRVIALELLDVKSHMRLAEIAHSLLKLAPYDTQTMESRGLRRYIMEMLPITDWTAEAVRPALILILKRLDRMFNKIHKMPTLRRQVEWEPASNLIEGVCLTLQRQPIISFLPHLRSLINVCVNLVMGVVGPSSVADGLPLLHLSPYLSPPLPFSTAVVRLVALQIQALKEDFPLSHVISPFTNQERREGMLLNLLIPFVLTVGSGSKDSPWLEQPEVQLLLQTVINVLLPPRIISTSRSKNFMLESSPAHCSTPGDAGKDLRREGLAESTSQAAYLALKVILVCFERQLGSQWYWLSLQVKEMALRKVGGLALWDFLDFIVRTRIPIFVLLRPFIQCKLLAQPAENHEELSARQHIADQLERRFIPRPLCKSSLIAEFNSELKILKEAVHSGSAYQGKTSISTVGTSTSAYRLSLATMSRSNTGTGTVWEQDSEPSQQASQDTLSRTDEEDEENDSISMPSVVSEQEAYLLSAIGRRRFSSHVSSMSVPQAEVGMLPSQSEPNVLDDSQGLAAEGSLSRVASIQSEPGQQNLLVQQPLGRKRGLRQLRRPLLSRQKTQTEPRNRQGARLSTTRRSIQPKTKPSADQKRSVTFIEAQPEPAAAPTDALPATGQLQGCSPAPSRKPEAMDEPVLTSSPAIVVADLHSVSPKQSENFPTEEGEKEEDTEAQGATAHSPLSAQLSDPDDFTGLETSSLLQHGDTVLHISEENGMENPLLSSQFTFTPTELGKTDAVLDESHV

- buried solvent accessible surface area (crossover interface): 3000 A2
Substance: human UNC79 (uncoordinated 79; protein unc-79 homolog), Q9P2D8 1-2635
